Assay results: patent US20130004522A1, “PHOTOTRIGGERED NANOPARTICLES FOR CELL AND TISSUE TARGETING” (priority 2009, published 2013)
Where no end group is shown, it is not given here. The star is where a group is joined. DMNB = 4,5-dimethoxy-2-nitrobenzyl photo-removable caging group, COc1cc(C*)c([N+](=O)[O-])cc1OC

Experiments:
[1] = Un-caging of the caged peptide targeter in solution by HPLC-UV; type: physicochemical; settings: ten seconds post illumination, retention time shifts to that of the non-caged targeter
Procedure: HPLC assays were performed on an HP 1100 HPLC system. Samples were injected in 50-μl volumes onto a C18 column. The column was eluted with an aqueous solution at 1 ml/min. The peptides were detected by a UV detector with absorbance wavelength set at 230 nm.
In order to determine the un-caging ability of the targeter (e.g., the peptide GGGGY(DMNB)IGSR—NH2 (SEQ ID NO: 2)) leading to its transformation to the active state, solutions of non-caged peptide (GGGGYIGSR-NH2) (SEQ ID NO: 2), or caged peptides subjected or not subjected to 1 min of illumination were evaluated by HPLC-UV. Retention time in the column of the non-caged targeter was ˜20 min (FIG. 3A) while that of the non-illuminated caged targeter was longer (˜30 min, FIG. 3B) due to the caging group existence which increases the hydrophobicity of the peptide. Ten seconds post illumination a shift in the retention time had occurred and the peptide had exited the column after ˜20 min (FIG. 3C).

integrin β1 = integrin β1 (Homo sapiens, UniProt P05556); settings: previously shown; cited from earlier work
integrin β1, sequence (P05556 21-798, species assumed): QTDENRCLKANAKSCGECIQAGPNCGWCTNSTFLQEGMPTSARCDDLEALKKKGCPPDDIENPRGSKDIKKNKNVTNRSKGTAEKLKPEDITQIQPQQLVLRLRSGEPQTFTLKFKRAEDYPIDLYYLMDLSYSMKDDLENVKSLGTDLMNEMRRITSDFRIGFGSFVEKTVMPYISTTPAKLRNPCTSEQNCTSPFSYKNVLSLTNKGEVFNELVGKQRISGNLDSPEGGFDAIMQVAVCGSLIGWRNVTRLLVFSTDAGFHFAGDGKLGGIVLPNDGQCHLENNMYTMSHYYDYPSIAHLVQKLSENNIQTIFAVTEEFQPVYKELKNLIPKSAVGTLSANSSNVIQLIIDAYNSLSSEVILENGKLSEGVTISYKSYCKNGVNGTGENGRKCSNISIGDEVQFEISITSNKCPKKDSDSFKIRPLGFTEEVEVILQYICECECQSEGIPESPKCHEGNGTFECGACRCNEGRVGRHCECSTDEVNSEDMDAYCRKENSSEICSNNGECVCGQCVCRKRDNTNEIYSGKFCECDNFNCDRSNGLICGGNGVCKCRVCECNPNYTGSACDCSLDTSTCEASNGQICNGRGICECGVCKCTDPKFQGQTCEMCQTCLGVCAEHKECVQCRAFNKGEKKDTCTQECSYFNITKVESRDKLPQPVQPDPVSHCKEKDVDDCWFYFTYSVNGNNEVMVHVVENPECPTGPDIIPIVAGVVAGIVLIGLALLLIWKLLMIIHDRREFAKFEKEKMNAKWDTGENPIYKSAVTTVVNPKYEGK

GGGGY(DMNB)IGSR—NH2 (GGGGY(DMNB)IGSR-NH2; N-terminus assumed; SMILES CC[C@H](C)[C@H](NC(=O)[C@H](Cc1ccc(OCc2cc(OC)c(OC)cc2[N+](=O)[O-])cc1)NC(=O)CNC(=O)CNC(=O)CNC(=O)CN)C(=O)NCC(=O)N[C@@H](CO)C(=O)N[C@@H](CCCNC(=N)N)C(N)=O)
release of the caging group from the peptide after illumination [1]: quick release of the caging group

CDPGYIGSR
cell adhesion and migration (integrin β1): promote cell adhesion and migration

YIGSR-NH2
cell adhesion and migration (integrin β1): promote cell adhesion and migration
